We go through 37 sequences from patent publication US20150119254.

Bounds are passed on as bounds.

The subject of series [1] is T1, VEGF-165 (Homo sapiens), P15692-4.
T1 sequence: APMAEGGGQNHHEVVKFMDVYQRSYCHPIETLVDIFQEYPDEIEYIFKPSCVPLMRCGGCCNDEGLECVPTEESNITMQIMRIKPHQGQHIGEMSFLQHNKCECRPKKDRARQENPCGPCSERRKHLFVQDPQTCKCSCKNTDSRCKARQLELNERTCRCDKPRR
Nature of the series: SPR. The following applies: for binding signal: 10 nM VEGF-165, 930 s.

Series [2] concerns the target T2, IFN-gamma (UniProt P01579).
T2 sequence: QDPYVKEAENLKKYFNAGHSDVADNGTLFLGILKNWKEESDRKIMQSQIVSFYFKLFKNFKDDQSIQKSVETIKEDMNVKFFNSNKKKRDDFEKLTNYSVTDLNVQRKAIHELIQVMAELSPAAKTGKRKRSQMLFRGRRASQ
The series is described as follows: SPR. The following applies: Ds at n; for binding signal: 150 nM IFN-gamma, 930 s.

Setting [3] is: Ds at n, PBS + 0.005% NP-40, 25 C.

Sequence “TTTTTGTAAACTGCGTCCGAAGGGGCNTGCAGTGANCCCGAATGGGTCCG [VGd1-2Ds-50]” showed a Kd in series [1] (Ds at n, 25 C) of 0.017 nM.
In series [2], “ATCAGTCCACATTGGACTTAGCCCAGCAAGACAATCTACGNTATGCCAGAAGTTGG [IF02Ds-57]” registered a binding signal of 0.03 bound ratio.
For the sequence “TGTCTAAGTANTGTGGGNTTGGAGGGGNTGTCGGA [Ds-09-1-mDsDsDs]”, the Kd in series [1] (Ds at n, retention 90%) came out at 50 nM.
Regarding “GTAAACTGCGTCCGAAGGGGCATGCAGTGANCCCGAATGGGTCCG [VGd1-ADs-45]”, the Kd in series [1] (Ds at n, 25 C) was found to be 0.037 nM.
Consider “TGTCTAAGTAAGGTGGGATTGGCGGGGATGTCGGA [Ds-09-1-AAA]”, for which, in series [1] (retention 28%), the Kd is greater than 100 nM.
Sequence “TGTCTAAGTANGGTGGGATTGGCGGGGNTGTCGGA [Ds-09-1-DsADs]” gave a Kd in series [1] (Ds at n, retention 33%) greater than 100 nM.
In the case of “TGTCTAAGTANGGTGGGNTTGGCGGGGNTGTCGGA [Ds-09-1-DsDsDs]”, the Kd in series [1] (Ds at n, PBS + 0.05% NP-40, 25 C, retention 92%) was determined as 4 nM.
On to “ATCAGTCCACTCGGGTCGTTTANTAATGTAGGTNTGGGCTAGGCNGCTAGTGGATG [IF07bDs-57]”, for which the Kd in series [2] (Bound 0.72 (Table 13), 25 C) was found to be 2 nM.
As for “CCGGTAAACTGCGTCCGAAGGGGCNTGCAGTGANCCCGAATGGGTCCGG [VGd1-2Ds-49]”, the Kd in series [1] (setting [3]) is 0.0046 nM.
“GTAAACTGAGTCCGAAGGGGCNTGCAGTGANCCCGAATGGGTCCG [VG20Ds-45]” yielded a Kd in series [1] (Ds at n, 25 C) of 0.022 nM.
The sequence “TCGGGTCATTTANTAATGTAGGTNTGGGCTAGGCNGCTAGTGGAT [IFd1-3Ds-45]” gave a Kd in series [2] (205 mM NaCl, 25 C) of 15 nM.
In series [1] (Ds at n), “ATCAGTCCACGAGATGGATGGTAGTGGCCGNACGGGGGGGNTGGAGANGCTGGCTG [VG08Ds-57]” registered a binding signal of 0.21 bound ratio.
Take “ATCAGTCCACAAAGTGCTGGGTCCGNATGGCGGGGGGTTAGGCCTCTTTGGGGCGG [VG01Ds-57]”: the binding signal in series [1] (Ds at n) is 0.2 bound ratio.
In series [2] (205 mM NaCl, 25 C), “TCCACTCGGGTCATTTANTAATGTAGGTNTGGGCTAGGCNGCTAGTGGA [IFd1-3Ds-49]” had a Kd of 1.6 nM.
Take “ATCAGTCCACATCGAGCGTGAGGTCCGAAAGGCGACTCTTNTAACATCAAGTAATG [VG02aDs-57]”: the binding signal in series [1] (Ds at n) turned out to be 0.15 bound ratio.
In series [2] (205 mM NaCl, 25 C), “TCGGGTCGTTTANTAATGTAGGTNTGGGCTAGGCNGCTAGTGGAT [IF07bDs-45]” displayed a Kd of 20 nM.
On to “TCGGGTCATTTAATAATGTAGGTATGGGCTAGGCNGCTAGTGGAT [IFd1-AADs-45]”, for which the Kd in series [2] (205 mM NaCl, 25 C) was 113 nM.
Regarding “GTAAACTGCGTCCGAAGGGGCNTGCAGTGANCCCGAATGGGTCCG [VGd1-2Ds-45]”, the Kd in series [1] (Ds at n, 25 C) is 0.016 nM.
As to “TGACCTCGGGTCATTTANTAATGTAGGTNTGGGCTAGGCNGCTAGGTCA [IFd1-3Ds-49b]”, the Kd in series [2] (205 mM NaCl, 25 C) stood at 1.1 nM.
In series [1] (25 C), “CGGTAAACTGCGTCCGAAGGGGCATGCAGTGAACCCGAATGGGTCCG [VGd1-2A-47]” had a Kd of 0.2 nM.
“TGTCTAAGTANGGTGGGNTTGGCGGGGATGTCGGA [Ds-09-1-DsDsA]” yielded a dissociation constant (Kd) in series [1] (Ds at n, retention 32%) greater than 100 nM.
In the case of “TCGGGTCATTTANTAATGTAGGTATGGGCTAGGCNGCTAGTGGAT [IFd1-DsADs-45]”, in series [2] (205 mM NaCl, 25 C), the Kd came out at 127 nM.
In series [2] (Bound 0.36), “TCGGGTCATTTANTAATGTAGGTNTGGGCTAGGCAGCTAGTGGAT [IFd1-DsDsA-45]” yielded a Kd greater than 200 nM.
Consider “GTAAACTGCGTCCGAAGGGGCNTGCAGTGANCCCGAATGGG [VGd1-2Ds-41b]”, for which the Kd in series [1] (Ds at n, 25 C) was 0.06 nM.
Turning to “GTAAACTGCGTCCGAAGGGGCNTGCAGTGAACCCGAATGGGTCCG [VGd1-DsA-45]”, the Kd in series [1] (Ds at n, 25 C) turned out to be 0.094 nM.
With “ATCAGTCCACTCGGGTCGTTTANTAATGTAGGTNTGGGCTAGGCNGCTAGTGGATG [IF07bDs-57 (Table 14)]”, the Kd in series [2] (205 mM NaCl phosphate pH 7.4, 25 C) amounted to 0.8 nM.
For “CGGTAAACTGCGTCCGAAGGGGCNTGCAGTGANCCCGAATGGGTCCG [VGd1-2Ds-47]”, the Kd in series [1] (setting [3]) was determined as 0.0046 nM.
In series [1] (Ds at n), “ATCAGTCCACATACGCGGGGGTGTTGAAGGGTTAGTCGGANGTAGTGTGTACAGAG [VG02bDs-57]” displayed a binding signal of 0.39 bound ratio.
For “TCAGTCCACGGTAAACTGAGTCCGAAGGGGCNTGCAGTGANCCCGAATGGGTCCGG [VG20Ds-57]”, in series [1] (Ds at n, printed as uM, evidently pM, 25 C), the Kd came to 0.0059 nM.
As for “TGTCTAAGTAAGGTGGGNTTGGCGGGGNTGTCGGA [Ds-09-1-ADsDs]”, in series [1] (Ds at n, PBS + 0.05% NP-40, 25 C, retention 94%), the Kd was 1 nM.
“ACTGCGTCCGAAGGGGCNTGCAGTGANCCCGAATGGGTCCG [VGd1-2Ds-41]” returned a Kd in series [1] (Ds at n, 25 C) of 0.069 nM.
In series [1] (Ds at n, 25 C), “GTAAACTGCGTCCGAAGGGGCNTGCAGTGANCCCGA [VGd1-2Ds-36b]” registered a Kd of 0.017 nM.
In series [1] (Ds at n, Bound 0.02, 25 C), “GTCCGAAGGGGCNTGCAGTGANCCCGAATGGGTCCG [VGd1-2Ds-36]” returned a Kd of 4.6 nM.
For the sequence “ATCAGTCCACTAATCAGGAAGANGATAGGGTTTGTCTTNTGTTGCCACGCTGGGAG [IF04Ds-57]”, the binding signal in series [2] was 0.1 bound ratio.
Same read-out and setting: then “ATCAGTCCACTCCTTCTGTCATNGGGCAGGCGCNTTTGGTGTAGNGTTTATCTTGG [IF07aDs-57]”, with 0.07 bound ratio.
In series [2] (205 mM NaCl, 25 C), “TCGGGTCATTTAATAATGTAGGTNTGGGCTAGGCNGCTAGTGGAT [IFd1-A2Ds-45]” showed a Kd of 20 nM.
“ATCAGTCCACCTATGTGGGTTGGNTGGGGTGTATGTTNGTAGGGCTANGGAGGTGG [IF11Ds-57]”: the binding signal in series [2] amounted to 0.66 bound ratio.

Broadly, the Kd is the equilibrium constant for the complex coming apart.
